Measured values reported in patent US7153676B1, “Transacylases of the paclitaxel biosynthetic pathway” (priority 1999, dated 2006).
Where “and” joins values, the source holds several entries; their conditions need not be identical. Identical values can stand only once.

B1: TAX6: full-length clone, SEQ ID NO: 44/45; 10-deacetylbaccatin III-10-O-acetyl transferase (protein, listed as Taxus cuspidata)
chain: MAGSTEFVVRSLERVMVAPSQPSPKAFLQLSTLDNLPGVRENIFNTLLVYNASDRVSVDPAKVIRQALSKVLVYYSPFAGRLRKKENGDLEVECTGEGALFVEAMADTDLSVLGDLDDYSPSLEQLLFCLPPDTDIEDIHPLVVQVTRFTCGGFVVGVSFCHGICDGLGAGQFLIAMGEMARGEIKPSSEPIWKRELLKPEDPLYRFQYYHFQLICPPSTFGKIVQGSLVITSETINCIKQCLREESKEFCSAFEVVSALAWIARTRALQIPHSENVKLIFAMDMRKLFNPPLSKGYYGNFVGTVCAMDNVKDLLSGSLLRVVRIIKKAKVSLNEHFTSTIVTPRSGSDESINYENIVGFGDRRRLGFDEVDFGWGHADNVSLVQHGLKDVSVVQSYFLFIRPPKNNPDGIKILSFMPPSIVKSFKFEMETMTNKYVTKP
B2: TAX1: full-length clone, SEQ ID NO: 27/28; encodes Taxus taxadienol acetyl transacylase (protein)
chain: MEKTDLHVNLIEKVMVGPSPPLPKTTLQLSSIDNLPGVRGSIFNALLIYNASPSPTMISADPAKPIREALAKILVYYPPFAGRLRETENGDLEVECTGEGAMFLEAMADNELSVLGDFDDSNPSFQQLLFSLPLDTNFKDLSLLVVQVTRFTCGGFVVGVSFHHGVCDGRGAAQFLKGLAEMARGEVKLSLEPIWNRELVKLDDPKYLQFFHFEFLRAPSIVEKIVQTYFIIDFETINYIKQSVMEECKEFCSSFEVASAMTWIARTRAFQIPESEYVKILFGMDMRNSFNPPLPSGYYGNSIGTACAVDNVQDLLSGSLLRAIMIIKKSKVSLNDNFKSRAVVKPSELDVNMNHENVVAFADWSRLGFDEVDFGWGNAVSVSPVQQQSALAMQNYFLFLKPSKNKPDGIKILMFLPLSKMKSFKIEMEAMMKKYVAKV

Legend:
[1] = target: T1, 10-deacetylbaccatin III-10-O-acetyl transferase (TAX6) (Taxus cuspidata, UniProt Q9M6E2); format: biochemical
T1 construct: to amplify the putative full-length acetyl transferase gene and incorporate NdeI and XbaI restriction sites; made in house; host or cells: E. coli JM109 (pCWori+)
T1 sequence (Q9M6E2 1-440): B1 chain
Experimental: For the enzyme preparation, E. coli cells transformed with the pCWori+ vector harboring the putative DBAT gene were grown overnight at 37° C. in 5 mL Luria-Bertani medium supplemented with ampicillin, and 1 mL of this inoculum was added to and grown in 100 mL Terrific Broth culture medium (6 g bacto-tryptone, Difco Laboratories, Spark, Md., 12 g yeast extract, EM Science, Cherryhill, N.J., and 2 mL gycerol in 500 mL water) supplemented with 1 mM IPTG, 1 mM thiamine HCl and 50 μg ampicillin/mL. After 24 hours, the bacteria were harvested by centrifugation, resuspended in 20 mL of assay buffer (25 mM Mopso, pH 7.4) and then disrupted by sonication at 0–4° C. The resulting homogenate was centrifuged at 15,000 g to remove debris, and a 1 mL aliquot of the supernatant was incubated with 10-deacetylbaccatin III (400 μM) and [2-^3H]acetyl coenzyme A (0.45μCi, 400 μM) for 1 hour at 31° C. The reaction mixture was extracted with ether and the solvent concentrated in vacuo. The crude product (pooled from five such assays) was purified by silica gel thin-layer chromatography (TLC; 70:30 ethyl acetate:hexane).
The activity of TAX6 (SEQ ID NO: 45) was assayed under standard conditions described in Walker et al., Arch. Biochem. Biophys.

[2] = target: T2, taxadienol acetyl transacylase (TAX1) (Taxus cuspidata, UniProt Q9M6F0); assay: recombinant TAX1 expressed in E. coli JM109, taxadienol acetyl transacylase assay; format: biochemical; conditions: cell-free extract, radiochemical analysis
T2 construct: Full-length insert fragments of the relevant plasmids are excised and subcloned in-frame into the expression vector pCWori+; made in house; host or cells: E. coli JM109 (pCWori+)
T2 sequence (Q9M6F0 1-439): B2 chain
Experimental: To determine the identity of the putative taxadienol acetyl transacylase, TAX1 (SEQ ID NO: 28), TAX2 (SEQ ID NO: 26), and TAX6 (SEQ ID NO: 45) were subcloned in-frame into the expression vector pCWori+ (Barnes, Methods Enzymol. 272:3–14, 1996) and expressed in E. coli JM109 cells. The transformed bacteria were cultured and induced with isopropyl β-D-thiogalactoside (IPTG), and cell-free extracts were prepared and evaluated for taxadienol acetyl transacylase activity using the previously developed assay procedures (Walker et al., Arch. Biochem. Biophys. 364:273–279, 1999). Clone TAX1 (corresponding directly to Probe 1) expressed high levels of taxadienol acetyl transacylase activity (20% conversion of substrate to product), as determined by radiochemical analysis; the product of this recombinant enzyme was confirmed as taxadienyl-5α-yl acetate by gas chromatography-mass spectrometry (GC-MS) (FIGS. 5A–5G). […] Neither of the recombinant proteins expressed from TAX1 (SEQ ID NO: 28) or TAX2 (SEQ ID NO: 26) was capable of acetylating the advanced paclitaxel precursor 10-deacetyl baccatin III to baccatin III. […]

| Molecule | optimum pH [1] | pH at half-maximal velocities [1] | taxadienol acetyl transacylase activity (conversion of substrate to product) [2] [%] |
| --- | --- | --- | --- |
| B1 | 7.5 | 6.4 and 7.8 |  |
| B2 |  |  | 20 |
